The source of these data is publication PMC4222252.

Test [1] has as its target His6-tagged HIV-1 integrase E10R/E13R (HIV-1).
For test [2], the target named is His6-tagged HIV-1 integrase E10R/E13R/K42E (HIV-1).
Test [3] deals with His6-tagged HIV-1 integrase E10R/E13R (HIV-1). Nature of the test: pull-down.
Test [4] has as its target His6-tagged HIV-1 integrase E10R/E13R/K42E (HIV-1). Nature of the test: pull-down.
Test [5] deals with His6-tagged HIV-1 integrase K42E (HIV-1). Nature of the test: pull-down.

As to “LEDGF/p75 K401E/K402E/R405E (from UniProt O75475 1-530) (natural protein)”, the concerted integration activity in vitro, percent of WT IN with WT LEDGF/p75 was found to be 55% in test [1] and 78% in test [2]. Also, the percent of the WT LEDGF/p75 bound by WT IN in test [3] is 11%; in test [4], 15%; in test [5] it was 42%.

Turning to “lens epithelium-derived growth factor (LEDGF)/p75, wild type (from UniProt O75475 1-530) (natural protein)”, the concerted integration activity in vitro, percent of WT IN with WT LEDGF/p75 in test [1] amounted to 53%; in test [2], 18%.
